Measured values from IntAct's records for PubMed 21423167.

B1: NF-kappa-B inhibitor alpha (Homo sapiens), P25963 (parent)
chain: MFQAAERPQEWAMEGPRDGLKKERLLDDRHDSGLDSMKDEEYEQMVKELQEIRLEPQEVPRGSEPWKQQLTEDGDSFLHLAIIHEEKALTMEVIRQVKGDLAFLNFQNNLQQTPLHLAVITNQPEIAEALLGAGCDPELRDFRGNTPLHLACEQGCLASVGVLTQSCTTPHLHSILKATNYNGHTCLHLASIHGYLGIVELLVSLGADVNAQEPCNGRTALHLAVDLQNPDLVSLLLKCGADVNRVTYQGYSPYQLTWGRPSTRIQQQLGQLTLENLQMLPESEDEESYDTESEFTEFTEDELPYDDCVFGGQRLTL
partner: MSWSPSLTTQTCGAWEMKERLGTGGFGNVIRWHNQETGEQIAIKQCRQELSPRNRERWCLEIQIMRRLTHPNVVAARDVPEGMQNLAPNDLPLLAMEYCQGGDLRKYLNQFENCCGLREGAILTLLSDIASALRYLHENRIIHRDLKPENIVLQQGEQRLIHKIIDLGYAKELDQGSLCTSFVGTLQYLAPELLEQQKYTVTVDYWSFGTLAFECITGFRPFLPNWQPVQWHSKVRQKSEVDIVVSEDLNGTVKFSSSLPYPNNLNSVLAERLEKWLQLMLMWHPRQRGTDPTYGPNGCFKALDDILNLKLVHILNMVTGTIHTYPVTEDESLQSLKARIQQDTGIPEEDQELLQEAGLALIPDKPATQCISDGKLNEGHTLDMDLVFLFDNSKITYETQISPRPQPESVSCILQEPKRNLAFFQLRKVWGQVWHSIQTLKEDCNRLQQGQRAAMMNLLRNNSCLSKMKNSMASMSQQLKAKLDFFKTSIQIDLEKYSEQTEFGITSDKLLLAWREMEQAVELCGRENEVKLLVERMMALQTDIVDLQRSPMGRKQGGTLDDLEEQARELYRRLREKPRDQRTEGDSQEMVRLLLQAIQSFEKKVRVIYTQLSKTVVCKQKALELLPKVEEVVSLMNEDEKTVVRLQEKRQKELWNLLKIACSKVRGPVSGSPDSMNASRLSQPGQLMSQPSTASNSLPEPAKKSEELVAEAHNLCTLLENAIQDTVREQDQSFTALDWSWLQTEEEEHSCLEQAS

Variants of: B1
Details: with ikkb_human IKBKB

Variant	effect of a mutation on the interaction
MFQAAERPQEWAMEGPRDGLKKERLLDDRHDAGLDAMKDEEYEQMVKELQEIRLEPQEVPRGSEPWKQQLTEDGDSFLHLAIIHEEKALTMEVIRQVKGDLAFLNFQNNLQQTPLHLAVITNQPEIAEALLGAGCDPELRDFRGNTPLHLACEQGCLASVGVLTQSCTTPHLHSILKATNYNGHTCLHLASIHGYLGIVELLVSLGADVNAQEPCNGRTALHLAVDLQNPDLVSLLLKCGADVNRVTYQGYSPYQLTWGRPSTRIQQQLGQLTLENLQMLPESEDEESYDTESEFTEFTEDELPYDDCVFGGQRLTL [S32A;S36A]	decreasing interaction
